Data set [1] addresses Msm RbpA/sigmaA RNAP holoenzyme, beta S447L (Mycobacterium smegmatis (strain MGM6029), UniProt A0QSL8;P60281;A0QS66;A0QWT1;A0QW02;A0QZ11 1-350;1-1169;1-1317;1-107;1-466;1-114, S447L). Kind of data set: X-ray crystallography (3.45 A); Kang A soaked in; Footprinting: 10 mM Tris-HCl pH 8, 10 mM K-glutamate, 5 mM MgCl2, 0.1 mM DTT, 15 ug/mL BSA, 37 C, 400 nM RNAP; crystals: 0.1 M Bis-Tris pH 6.0, 0.2 M LiSO4, 16% PEG 3350, 2.5% ethylene glycol, 22 C. To be noted: protein: recombinant; tags: beta' C-terminal ppx-His10; chain copies: 2;1;1;1;1;1.

Data set [2] deals with Msm RbpA/sigmaA RNAP holoenzyme (wild type) (Mycobacterium smegmatis (strain MGM6029), UniProt A0QSL8;P60281;A0QS66;A0QWT1;A0QW02;A0QZ11 1-350;1-1169;1-1317;1-107;1-466;1-114). Kind of data set: X-ray crystallography (3.05 A); Rif soaked in; Footprinting: 10 mM Tris-HCl pH 8, 10 mM K-glutamate, 5 mM MgCl2, 0.1 mM DTT, 15 ug/mL BSA, 37 C, 400 nM RNAP; crystals: 0.1 M Bis-Tris pH 6.0, 0.2 M LiSO4, 16% PEG 3350, 2.5% ethylene glycol, 22 C. To be noted: protein: recombinant; tags: beta' C-terminal ppx-His10; chain copies: 2;1;1;1;1;1; 3' overhang 5 nt on strand 1 (upstream fork), other end blunt.

B1: Usfork_T10 upstream fork promoter DNA (dsDNA)
DNA 1: GCTTGACAAAAGTGTTAAATTGTGCTATACT
DNA 2: AGCACAATTTAACACTTTTGTCAAGC
On to B1, for which the binding result in data set [1] and in data set [2] was “binds” throughout.
